Measurements published in patent US20240270846A1 (published 2024).
Substitutions are numbered along the chain they refer to. Numbers in names are those of the source.

B1: GLS3000 F55Y one-arm antibody (antibody, human IgG1, kappa, L234A L235A, N297A, name in Kabat numbering)
light: DIVMTQSPLSLPVTPGEPASISCRSSQSLVHSNRNTYLHWYQQKPGQAPRLLIYKVSNRYSGVPDRFSGSGSGTDFTLKISRVEAEDVGVYYCGQGTQVPYTFGQGTKLEIKRTVAAPSVFIFPPSDEQLKSGTASVVCLLNNFYPREAKVQWKVDNALQSGNSQESVTEQDSKDSTYSLSSTLTLSKADYEKHKVYACEVTHQGLSSPVTKSFNRGEC
heavy: QVQLVESGGGVVQPGRSLRLSCAASGFTFSNAWMHWVRQAPGKGLEWVAQIKAKSNNYATYYAESVKGRFTISRDDSKNSLYLQMNSLKTEDTAVYYCRYVHYGAYYGVDAWGQGTTVTVSSASTKGPSVFPLAPSSKSTSGGTAALGCLVKDYFPEPVTVSWNSGALTSGVHTFPAVLQSSGLYSLSSVVTVPSSSLGTQTYICNVNHKPSNTKVDKKVEPKSCDKTHTCPPCPAPEAAGGPSVFLFPPKPKDTLMISRTPEVTCVVVDVSHEDPEVKFNWYVDGVEVHNAKTKPREEQYASTYRVVSVLTVLHQDWLNGKEYKCKVSNKALPAPIEKTISKAKGQPREPQVYTLPPSRCELTKNQVSLSCAVKGFYPSDIAVEWESNGQPENNYKTTPPVLDSDGSFFLVSKLTVDKSRWQQGNVFSCSVMHEALHNHYTQKSLSLSPDYKDDDDK
chain: EPKSSDKTHTCPPCPAPELLGGPSVFLFPPKPKDTLMISRTPEVTCVVVDVSHEDPEVKFNWYVDGVEVHNAKTKPREEQYNSTYRVVSVLTVLHQDWLNGKEYKCKVSNKALPAPIEKTISKAKGQPREPQVCTLPPSRDELTKNQVSLWCLVKGFYPSDIAVEWESNGQPENNYKTTPPVLDSDGSFFLYSKLTVDKSRWQQGNVFSCSVMHEALHNRYTQKSLSLSP
B2: GLS3000 G91E one-arm antibody (antibody, human IgG1, kappa, L234A L235A, N297A, name in Kabat numbering)
light: B1 light with Y60F, G96E
heavy: B1 heavy
chain: B1 chain
B3: GLS3000 G89E one-arm antibody (antibody, human IgG1, kappa, L234A L235A, N297A, name in Kabat numbering)
light: B1 light with Y60F, G94E
heavy: B1 heavy
chain: B1 chain
B4: GLS3000 H34P one-arm antibody (antibody, human IgG1, kappa, L234A L235A, N297A, name in Kabat numbering)
light: B1 light with H39P, Y60F
heavy: B1 heavy
chain: B1 chain
B5: GLS3000 G91T one-arm antibody (antibody, human IgG1, kappa, L234A L235A, N297A, name in Kabat numbering)
light: B1 light with Y60F, G96T
heavy: B1 heavy
chain: B1 chain
B6: GLS3000 G89V one-arm antibody (antibody, human IgG1, kappa, L234A L235A, N297A, name in Kabat numbering)
light: B1 light with Y60F, G94V
heavy: B1 heavy
chain: B1 chain
B7: GLS3000 H34Q one-arm antibody (antibody, human IgG1, kappa, L234A L235A, N297A, name in Kabat numbering)
light: B1 light with H39Q, Y60F
heavy: B1 heavy
chain: B1 chain
B8: GLS3000 H34L one-arm antibody (antibody, human IgG1, kappa, L234A L235A, N297A, name in Kabat numbering)
light: B1 light with H39L, Y60F
heavy: B1 heavy
chain: B1 chain
B9: GLS3000 G91D one-arm antibody (antibody, human IgG1, kappa, L234A L235A, N297A, name in Kabat numbering)
light: B1 light with Y60F, G96D
heavy: B1 heavy
chain: B1 chain
B10: GLS3000 G89W one-arm antibody (antibody, human IgG1, kappa, L234A L235A, N297A, name in Kabat numbering)
light: B1 light with Y60F, G94W
heavy: B1 heavy
chain: B1 chain
B11: GLS3000 H34G one-arm antibody (antibody, human IgG1, kappa, L234A L235A, N297A, name in Kabat numbering)
light: B1 light with H39G, Y60F
heavy: B1 heavy
chain: B1 chain
B12: GLS3000 G89T one-arm antibody (antibody, human IgG1, kappa, L234A L235A, N297A, name in Kabat numbering)
light: B1 light with Y60F, G94T
heavy: B1 heavy
chain: B1 chain
B13: GLS3000 G89N one-arm antibody (antibody, human IgG1, kappa, L234A L235A, N297A, name in Kabat numbering)
light: B1 light with Y60F, G94N
heavy: B1 heavy
chain: B1 chain
B14: GLS3000 H34I one-arm antibody (antibody, human IgG1, kappa, L234A L235A, N297A, name in Kabat numbering)
light: B1 light with H39I, Y60F
heavy: B1 heavy
chain: B1 chain
B15: GLS3000 G89L one-arm antibody (antibody, human IgG1, kappa, L234A L235A, N297A, name in Kabat numbering)
light: B1 light with Y60F, G94L
heavy: B1 heavy
chain: B1 chain
B16: GLS3000 G89P one-arm antibody (antibody, human IgG1, kappa, L234A L235A, N297A, name in Kabat numbering)
light: B1 light with Y60F, G94P
heavy: B1 heavy
chain: B1 chain
B17: GLS3000 G89H one-arm antibody (antibody, human IgG1, kappa, L234A L235A, N297A, name in Kabat numbering)
light: B1 light with Y60F, G94H
heavy: B1 heavy
chain: B1 chain
B18: GLS3000 G89R one-arm antibody (antibody, human IgG1, kappa, L234A L235A, N297A, name in Kabat numbering)
light: B1 light with Y60F, G94R
heavy: B1 heavy
chain: B1 chain
B19: GLS3000 H34N one-arm antibody (antibody, human IgG1, kappa, L234A L235A, N297A, name in Kabat numbering)
light: B1 light with H39N, Y60F
heavy: B1 heavy
chain: B1 chain
B20: GLS3000 H34M one-arm antibody (antibody, human IgG1, kappa, L234A L235A, N297A, name in Kabat numbering)
light: B1 light with H39M, Y60F
heavy: B1 heavy
chain: B1 chain
B21: GLS3000 G91P one-arm antibody (antibody, human IgG1, kappa, L234A L235A, N297A, name in Kabat numbering)
light: B1 light with Y60F, G96P
heavy: B1 heavy
chain: B1 chain
B22: GLS3000 G89I one-arm antibody (antibody, human IgG1, kappa, L234A L235A, N297A, name in Kabat numbering)
light: B1 light with Y60F, G94I
heavy: B1 heavy
chain: B1 chain
B23: GLS3000 H34F one-arm antibody (antibody, human IgG1, kappa, L234A L235A, N297A, name in Kabat numbering)
light: B1 light with H39F, Y60F
heavy: B1 heavy
chain: B1 chain
B24: GLS3000 G89K one-arm antibody (antibody, human IgG1, kappa, L234A L235A, N297A, name in Kabat numbering)
light: B1 light with Y60F, G94K
heavy: B1 heavy
chain: B1 chain
B25: GLS3000 G89D one-arm antibody (antibody, human IgG1, kappa, L234A L235A, N297A, name in Kabat numbering)
light: B1 light with Y60F, G94D
heavy: B1 heavy
chain: B1 chain
B26: GLS3000 G89Q one-arm antibody (antibody, human IgG1, kappa, L234A L235A, N297A, name in Kabat numbering)
light: B1 light with Y60F, G94Q
heavy: B1 heavy
chain: B1 chain
B27: GLS3000 G89A one-arm antibody (antibody, human IgG1, kappa, L234A L235A, N297A, name in Kabat numbering)
light: B1 light with Y60F, G94A
heavy: B1 heavy
chain: B1 chain
B28: GLS3000 H34E one-arm antibody (antibody, human IgG1, kappa, L234A L235A, N297A, name in Kabat numbering)
light: B1 light with H39E, Y60F
heavy: B1 heavy
chain: B1 chain
B29: GLS3000 G89M one-arm antibody (antibody, human IgG1, kappa, L234A L235A, N297A, name in Kabat numbering)
light: B1 light with Y60F, G94M
heavy: B1 heavy
chain: B1 chain
B30: GLS3000 H34K one-arm antibody (antibody, human IgG1, kappa, L234A L235A, N297A, name in Kabat numbering)
light: B1 light with H39K, Y60F
heavy: B1 heavy
chain: B1 chain
B31: GLS3000 G91S one-arm antibody (antibody, human IgG1, kappa, L234A L235A, N297A, name in Kabat numbering)
light: B1 light with Y60F, G96S
heavy: B1 heavy
chain: B1 chain
B32: GLS3000 G89F one-arm antibody (antibody, human IgG1, kappa, L234A L235A, N297A, name in Kabat numbering)
light: B1 light with Y60F, G94F
heavy: B1 heavy
chain: B1 chain
B33: GLS3000 G91A one-arm antibody (antibody, human IgG1, kappa, L234A L235A, N297A, name in Kabat numbering)
light: B1 light with Y60F, G96A
heavy: B1 heavy
chain: B1 chain

Target: T1, CD3 epsilon homodimer protein (UniProt P07766 23-126)
T1 construct: Construct of the homodimer is not described; also called CD3 (CD3 epsilon)
Assay: SPR Biacore T200, CD3e homodimer on chip, antibody analyte;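 further: CD3 epsilon homodimer amine-coupled on CM4 sensor chip, antibodies injected as analyte at 25 °C in HBS-EP+, ratio ≥0.8 taken as binding retained versus unaltered parent antibody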

T1 sequence (P07766 23-126): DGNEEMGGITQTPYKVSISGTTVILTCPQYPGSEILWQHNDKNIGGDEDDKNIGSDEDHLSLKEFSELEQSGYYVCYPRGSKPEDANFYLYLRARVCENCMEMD

Going from B1 to B2, the “ratio of amounts bound (altered form/GLS3000)” value falls from 0.92 to 0.16.

First: B3
Second: B4
The “ratio of amounts bound (altered form/GLS3000)” value of the first is lower: 0.26 for the first, 0.34 for the second.

First: B5
Second: B6
The “ratio of amounts bound (altered form/GLS3000)” value of the first is lower: 0.26 for the first, 1.63 for the second.

Going from B7 to B8, the “ratio of amounts bound (altered form/GLS3000)” value rises from 0.25 to 0.59.

First: B9
Second: B10
The “ratio of amounts bound (altered form/GLS3000)” value of the first is lower: 0.16 for the first, 0.5 for the second.

Going from B11 to B12, the “ratio of amounts bound (altered form/GLS3000)” value rises from 1.02 to 1.03.

Compared with B13, B14 is lower in “ratio of amounts bound (altered form/GLS3000)” value: 0.8 for the first, 0.65 for the second.

Compared with B15, B16 is lower in “ratio of amounts bound (altered form/GLS3000)” value: 0.94 for the first, 0.35 for the second.

Going from B17 to B18, the “ratio of amounts bound (altered form/GLS3000)” value falls from 0.7 to 0.19.

Going from B19 to B20, the “ratio of amounts bound (altered form/GLS3000)” value falls from 0.65 to 0.35.

First: B21
Second: B22
The “ratio of amounts bound (altered form/GLS3000)” value of the first is lower: 0.27 for the first, 1.07 for the second.

Compared with B23, B24 is higher in “ratio of amounts bound (altered form/GLS3000)” value: 0.27 for the first, 0.4 for the second.

First: B25
Second: B26
The “ratio of amounts bound (altered form/GLS3000)” value of the first is lower: 0.33 for the first, 0.38 for the second.

Compared with B27, B28 is lower in “ratio of amounts bound (altered form/GLS3000)” value: 1.13 for the first, 0.23 for the second.

Compared with B29, B30 is higher in “ratio of amounts bound (altered form/GLS3000)” value: 0.52 for the first, 2.17 for the second.

Going from B31 to B32, the “ratio of amounts bound (altered form/GLS3000)” value rises from 0.26 to 1.09.

For B33, the “ratio of amounts bound (altered form/GLS3000)” value was 0.27.
